The values that follow come from patent US20240376221A1 (Genmab, published 2024).

Read-outs that look alike come from different tables or passages of the source.

Experiment [1] concerns the target T1, recombinant cynomolgus monkey OX40 (Acro Biosystems, cat. no. OXO-C5220) (cynomolgus monkey, UniProt P43489 29-216 (human entry), limits assumed).
T1 construct: bought soluble protein; also called Cyno OX40
T1 chain: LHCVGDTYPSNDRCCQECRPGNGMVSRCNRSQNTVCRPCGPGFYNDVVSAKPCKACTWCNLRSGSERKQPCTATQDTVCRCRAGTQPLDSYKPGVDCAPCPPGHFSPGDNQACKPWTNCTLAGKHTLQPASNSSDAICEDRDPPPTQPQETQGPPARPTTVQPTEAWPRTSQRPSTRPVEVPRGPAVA
In words: BLI, Ab on AHC sensor, OX40 analyte; * binding observed, less reliable fit. The method, then:
(§1) Experiments were carried out while shaking at 1,000 RPM at 30° C. […] Next, AHC sensors were loaded with antibody (1 μg/mL in Sample Diluent) for 600 s. After a baseline measurement in sample diluent (100 s), the association (200 s) and dissociation (1,000 s) of human OX40 (Acro Biosystems, cat. no. OXO-H5224), and cynomolgus monkey OX40 (Acro Biosystems, cat. no. OXO-C5220) was determined using a concentration range of 0.78 to 800 nM with 2-fold dilution steps.
(§2) Data were acquired using Data Acquisition Software v12.0 (Sartorius) and analyzed with Data Analysis Software v12.0 (Sartorius). Data traces were corrected per antibody by subtraction of the reference sensor. The Y-axis was aligned to the last 10 s of the baseline and Interstep Correction alignment to dissociation as well as Savitzky-Golay filtering were applied. Data traces with a response<0.05 nm were excluded from analysis. […] The data was fitted with the 1:1 model using a window of interest for the association of 200 s and dissociation times set at 50 s, 200 s and 1,000 s. The dissociation time was chosen based upon R² value, visual inspection of the curve and at least 5% signal decay during the dissociation step.

Experiment [2] deals with T2, His-tagged human recombinant FcγRIIa 167-His (human, UniProt P12318 34-218).
T2 construct: bought; also called FcγRIIa[H]; not shown: His-tag
T2 sequence (looked up): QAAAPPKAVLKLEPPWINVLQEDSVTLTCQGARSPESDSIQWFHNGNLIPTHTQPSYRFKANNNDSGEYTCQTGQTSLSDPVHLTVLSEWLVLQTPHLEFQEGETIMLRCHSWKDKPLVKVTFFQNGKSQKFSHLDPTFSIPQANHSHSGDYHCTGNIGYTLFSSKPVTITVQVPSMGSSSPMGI
Put plainly: SPR, His-tagged FcγRIIa[H] captured on an anti-His chip, antibody injected. The procedure:
(§3) Biacore Series S Sensor Chips CM5 (Cytiva, cat. no. 29104988) were covalently coated with anti-His antibody using amine-coupling and His capture kits (Cytiva, cat. no. BR100050 and cat. no. 29234602) according to the manufacturer's instructions. […] After three start-up cycles of HBS-EP+ buffer, antibody samples were injected for 12 cycles per sample to generate binding curves using antibody concentration ranges of 0 to 3,000 nM for FcγRIa and 0 to 10,000 nM for the other FcγRs. […] Dissociation from the anti-His-coated surface was performed by regeneration of the surface using 10 mM Glycine-HCl pH 1.5 (Cytiva, cat. no. BR100354).
For orientation: In SPR one partner is held on a chip, and binding of the other changes the refractive index at the surface.

The target in experiment [3] is T3, His-tagged human recombinant FcγRIIb (human, UniProt P31994 43-217).
T3 construct: bought; also called FcγRII2b [sic]; not shown: His-tag
T3 sequence (looked up): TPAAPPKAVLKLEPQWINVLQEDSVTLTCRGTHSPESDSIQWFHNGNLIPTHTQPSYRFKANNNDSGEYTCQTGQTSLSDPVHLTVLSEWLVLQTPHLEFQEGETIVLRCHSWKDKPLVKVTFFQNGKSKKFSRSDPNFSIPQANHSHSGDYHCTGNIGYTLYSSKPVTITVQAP
In words: SPR, His-tagged FcγRIIb captured on an anti-His chip, antibody injected. The method, then: as §3

Experiment [4] addresses T4, His-tagged human recombinant FcγRIIIa 176-Phe (human, UniProt P08637 17-208).
T4 construct: bought; also called FcγRIIIa[F]; not shown: His-tag
In words: SPR, His-tagged FcγRIIIa[F] captured on an anti-His chip, antibody injected. The procedure:
as §3

The target of experiment [5] is T5, His-tagged human recombinant FcγRIa (human, UniProt P12314 16-288).
T5 construct: bought; also called FcγRIa (SPR); not shown: His-tag
In words: SPR, His-tagged FcγRIa captured on an anti-His chip, antibody injected. The method, then:
as §3

Experiment [6] addresses T6, His-tagged human recombinant FcγRIIIa 176-Val (human, UniProt P08637 17-208).
T6 construct: bought; also called FcγRIIIa[V]; not shown: His-tag
Put plainly: SPR, His-tagged FcγRIIIa[V] captured on an anti-His chip, antibody injected. The method, then:
as §3

For experiment [7], the target named is T5, His-tagged human recombinant FcγRIa. In words: SPR, His-tagged FcγRIa captured on an anti-His chip, antibody injected. The method, then: as §3
This is another data set of the same source.

In experiment [8] the target is T7, His-tagged human recombinant FcγRIIa 167-Arg (human, UniProt P12318 34-218).
T7 construct: bought; also called FcγRIIa[R]; not shown: His-tag
T7 sequence (looked up): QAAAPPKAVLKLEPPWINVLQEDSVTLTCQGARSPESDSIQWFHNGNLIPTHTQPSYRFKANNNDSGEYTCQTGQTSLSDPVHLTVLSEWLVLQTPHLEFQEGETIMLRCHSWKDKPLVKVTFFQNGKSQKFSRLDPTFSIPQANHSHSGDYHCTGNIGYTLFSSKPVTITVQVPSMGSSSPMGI
In words: SPR, His-tagged FcγRIIa[R] captured on an anti-His chip, antibody injected. The procedure: as §3

The target in experiment [9] is T1, recombinant cynomolgus monkey OX40 …. In words: BLI, Ab on AHC sensor, OX40 analyte. The method, then:
as §1, §2
A general note: Biolayer interferometry detects binding as a change in optical thickness at a sensor tip.

Experiment [10] deals with T8, human FcγRIa, cell surface-expressed (human, UniProt P12314 16-374).
T8 construct: whole, on cells; also called CD64; FcγR1a on ExpiCHO-S cells
In words: flow cytometry, ExpiCHO-S cells transfected with human FcγRIa. Background: Flow cytometry measures light scatter and fluorescence of single cells or particles in a stream.

T5 sequence (P12314 16-288 limits assumed): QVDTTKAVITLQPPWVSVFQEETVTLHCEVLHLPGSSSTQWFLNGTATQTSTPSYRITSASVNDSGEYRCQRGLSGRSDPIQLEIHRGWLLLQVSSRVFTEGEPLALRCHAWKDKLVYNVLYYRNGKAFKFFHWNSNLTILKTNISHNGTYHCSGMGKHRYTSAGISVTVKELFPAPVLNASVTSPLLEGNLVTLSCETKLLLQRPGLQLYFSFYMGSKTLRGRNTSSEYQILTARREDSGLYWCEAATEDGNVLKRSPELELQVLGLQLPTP
T8 sequence (P12314 16-374): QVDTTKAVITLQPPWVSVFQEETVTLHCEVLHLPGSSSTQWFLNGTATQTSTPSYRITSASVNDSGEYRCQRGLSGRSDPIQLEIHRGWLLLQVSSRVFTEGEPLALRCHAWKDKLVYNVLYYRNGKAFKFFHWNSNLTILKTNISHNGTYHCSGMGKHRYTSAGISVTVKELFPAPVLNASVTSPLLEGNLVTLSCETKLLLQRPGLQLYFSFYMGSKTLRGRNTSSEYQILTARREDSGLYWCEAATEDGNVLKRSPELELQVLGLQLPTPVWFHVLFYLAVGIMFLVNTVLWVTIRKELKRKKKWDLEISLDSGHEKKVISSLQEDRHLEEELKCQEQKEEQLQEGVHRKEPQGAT
T6 sequence (P08637 17-208 F176V limits assumed): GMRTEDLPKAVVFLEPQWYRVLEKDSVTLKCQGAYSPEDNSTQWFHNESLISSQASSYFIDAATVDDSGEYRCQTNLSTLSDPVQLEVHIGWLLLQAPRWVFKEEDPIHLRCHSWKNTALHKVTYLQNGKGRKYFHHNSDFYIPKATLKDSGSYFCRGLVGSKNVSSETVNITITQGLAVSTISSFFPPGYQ
T4 sequence (P08637 17-208 limits assumed): as the sequence (P08637 17-208 F176V limits assumed) above, with V160F counted along it

B1: IgG1-CD134-012 (antibody)
heavy: not shown
light: DIVMTQTPASVEAAVGGTVTIKCQASENIYSSLAWYQQKPGQPPKLLIYRTSTLASGVPSRFKGSGSGTQFTLTISDLESDDAATYYCQSYYHNSGGGYDYGFGGGTEVVAKRTVAAPSVFIFPPSDEQLKSGTASVVCLLNNFYPREAKVQWKVDNALQSGNSQESVTEQDSKDSTYSLSSTLTLSKADYEKHKVYACEVTHQGLSSPVTKSFNRGEC
notes: rabbit-human chimeric IgG1
A word on the Kd: it is the constant that tells how readily two partners part at equilibrium. In general, koff refers to the first-order rate constant of dissociation. In general, kon refers to the second-order rate constant of association. Regarding B1, in [1], the Kd is 180 nM, the off-rate constant (koff) was 0.018 s⁻¹ and the association rate constant (kon) turned out to be 98000 M⁻¹ s⁻¹.

B2: IgG1-b12 (antibody)
heavy: not shown
VL: EIVLTQSPGTLSLSPGERATFSCRSSHSIRSRRVAWYQHKPGQAPRLVIHGVSNRASGISDRFSGSGSGTDFTLTITRVEPEDFALYYCQVYGASSYTFGQGTKLERK
notes: wild-type Fc domain; also called anti-HIV gp120 antibody IgG1-b12
Broadly, the EC50 (read off the curve) is the concentration that produces a half-maximal response. Regarding B2, the binding result in experiment [2], in experiment [3], in experiment [4], in [6] and in [8] was “binds” throughout. Besides, the “EC50 (read off the curve)” value was roughly 20 nM in experiment [5] and roughly 30 nM in [7].

B3: IgG1-CD134-007 (antibody)
heavy: not shown
light: AQVLTQTPSPVSAAVGGTVTISCQSSESVWNNNWLAWYQQKPGQPPNLLIYEASTLASGVSSRFKGSGSGTQFTLTVSEVQSDDAATYYCQGGYYDSSPIWTFGGGTEVVVKRTVAAPSVFIFPPSDEQLKSGTASVVCLLNNFYPREAKVQWKVDNALQSGNSQESVTEQDSKDSTYSLSSTLTLSKADYEKHKVYACEVTHQGLSSPVTKSFNRGEC
notes: rabbit-human chimeric IgG1
With B3, in experiment [9], the Kd is 7.1 nM, the koff was found to be 0.0018 s⁻¹ and the kon was found to be 260000 M⁻¹ s⁻¹.

B4: IgG1-CD134-003 (antibody)
heavy: not shown
light: AAVLTQTPSPVSAAVGGTVTIKCQSSQIVVNNNFLSWYQQKPGQPPKLLIYDASNLASGVPDRFSGSGSGTQFTLTISGVQSDDAATYYCLGGYDDDAENAFGGGTEVVVQRTVAAPSVFIFPPSDEQLKSGTASVVCLLNNFYPREAKVQWKVDNALQSGNSQESVTEQDSKDSTYSLSSTLTLSKADYEKHKVYACEVTHQGLSSPVTKSFNRGEC
notes: rabbit-human chimeric, wild-type IgG1 Fc
Take B4: in experiment [9], the Kd came to 3.5 nM, the dissociation rate constant (koff) amounted to 0.00096 s⁻¹ and the kon came out at 280000 M⁻¹ s⁻¹. Further, the concentration giving a half-maximal response (EC50 (read off the curve)) in [10] is roughly 0.7 µg/mL.

B5: IgG1-CD134-003-HC6LC2 (antibody)
heavy: not shown
light: AAVLTQSPSSLSASVGDRVTITCQSSQIVVNNNFLSWYQQKPGKAPKLLIYDASNLASGVPDRFSGSGSGTDFTFTISSLQPEDIATYYCLGGYDDDAENAFGGGTKVEIKRTVAAPSVFIFPPSDEQLKSGTASVVCLLNNFYPREAKVQWKVDNALQSGNSQESVTEQDSKDSTYSLSSTLTLSKADYEKHKVYACEVTHQGLSSPVTKSFNRGEC
notes: variant of m1 without Fc mutations
Regarding B5, the binding result in experiment [10] was “binds”.

B6: IgG1-CD134-003-HC6LC2-P329R-E345R (antibody)
heavy: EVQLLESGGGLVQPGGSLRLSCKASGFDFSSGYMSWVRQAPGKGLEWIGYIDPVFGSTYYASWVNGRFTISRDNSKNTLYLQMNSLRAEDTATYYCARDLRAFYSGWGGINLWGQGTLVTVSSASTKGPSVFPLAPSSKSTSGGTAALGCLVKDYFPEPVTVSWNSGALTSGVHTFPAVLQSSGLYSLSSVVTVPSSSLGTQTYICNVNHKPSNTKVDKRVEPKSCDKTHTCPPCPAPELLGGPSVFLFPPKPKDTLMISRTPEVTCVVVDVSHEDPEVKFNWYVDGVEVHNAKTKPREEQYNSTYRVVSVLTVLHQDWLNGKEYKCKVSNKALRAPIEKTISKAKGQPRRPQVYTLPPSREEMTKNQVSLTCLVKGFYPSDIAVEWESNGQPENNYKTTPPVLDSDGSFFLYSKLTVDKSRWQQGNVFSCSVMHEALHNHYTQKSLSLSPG
light: AAVLTQSPSSLSASVGDRVTITCQSSQIVVNNNFLSWYQQKPGKAPKLLIYDASNLASGVPDRFSGSGSGTDFTFTISSLQPEDIATYYCLGGYDDDAENAFGGGTKVEIKRTVAAPSVFIFPPSDEQLKSGTASVVCLLNNFYPREAKVQWKVDNALQSGNSQESVTEQDSKDSTYSLSSTLTLSKADYEKHKVYACEVTHQGLSSPVTKSFNRGEC
notes: humanized; human IgG1 with P329R and E345R (Eu); also called IgG1-CD134-003-HC6LC2-RR
As to B6, in experiment [9], the Kd amounted to 27 nM, the koff worked out at 0.0029 s⁻¹ and the kon was 110000 M⁻¹ s⁻¹.
